This series relates to CC1=CC(O)C2OC1(C(C)C(C)O)OC(C(C)/C=C(C)/C=C/C(O)=C1C(=O)CNC1=O)C2C. The series is described as follows: HPLC product quantification, initial rates, Michaelis-Menten fit. The series is classed as biochemical, Saccharothrix syringae. The note with it: 2 mM NAD^+, pH 8.5, 45°C, 0.2 μM NcmD.

Turning to NcmD (Saccharothrix syringae), the Michaelis constant (Km) was 131 ± 13 µM and the kcat came to 1.08 ± 0.083 s⁻¹.
